Laboratory results from PMC9813072 (Osteoporosis International, 2022).

How the values were obtained:
[1] = format: in vivo, healthy men and postmenopausal women; conditions: single SC 20 μg; N = 105 per treatment
serum calcium = conditions: teriparatide 20 μg once a day; cited from earlier work
[2] = cited from earlier work

With “EU-teriparatide: Forsteo®, Eli Lilly, The Netherlands; EU-approved teriparatide reference product” the “Total adverse events, number of events” value [1] was 5 e and the “Total adverse events, subjects” value [1] was 4 (3.81%) n (%).
In the case of Teriparatide, the “Median increase of serum calcium at peak” value (serum calcium) is given as 0.4 mg/dL, the Half-life ([2]; after SC injection) is given as “approximately 1 h” and the “Time to peak serum concentration” value ([2]; after SC injections of 20, 40, and 80 μg) is given as “approximately 30 min”. For the same substance, the Absolute bioavailability ([2]; following SC administration) was 95%.
For “Teriparatide biosimilar: potential biosimilar of teriparatide developed by Intas Pharmaceutical Ltd., India; test product”, the “Total adverse events, subjects” value [1] was 8 (7.62%) n (%).
For “US-teriparatide: Forteo®, Lilly USA; US-approved teriparatide reference product”, the “Total adverse events, number of events” value [1] was 3 e and the “Total adverse events, subjects” value [1] was 3 (2.86%) n (%).
